Substitutions are numbered along the chain they refer to. Like-named read-outs stand apart in the source and are kept apart here.
B1: mAb 33.2.2: murine monoclonal anti-R. gnavus lipoglycan antibody; VH SEQ ID NO: 4, VL SEQ ID NO: 9 (antibody, V domains shown)
VH: EVQLQESGPSLVKPSQTLSLTCSVTGDSITSGYWNWIRKFPGNKLEYLGYINYSGSTYYNPSLRSRISITRDTSKNQYYLQLNAVTTEDTATYYCARYYYHDDSYAMDNWGQGTSVTVSS
VL: DIQMNQSPSSLSASLGDTITITCHASQNINVWLSWFQQKPGNIPKLLIYKASNLHTGVPSRFSGTGSGTGFTLTISSLQPEDIATYYCQQGQSYPLTFGAGTKLELK
B2: mAb 34.2.2: murine monoclonal anti-R. gnavus lipoglycan antibody; VH SEQ ID NO: 13, VL SEQ ID NO: 15 (antibody, V domains shown)
VH: B1 VH with L48M, S56T, R64K, A84S, H101Y, D103S, N109Y
VL: B1 VL with T65S

Experiments:
[1] = tested on: intestinal permeability of RG strain colonized mice; details: 0.15 mg/ml in drinking water, 10 days
Description: For each group mean+/−standard deviation (SD) (FIG. 9A). […] For the bottom panels, significance was tested by paired t test. *p<0.05 was considered statistically significant.
In vivo assay of intestinal permeability. To assess intestinal permeability, after a 4-hours fasting from food and water, mice were orally gavaged with 4,000-Da fluorescein (FITC)-dextran (FD4) (Sigma-Aldrich, St. Louis, MO) (250 mg/kg body weight) in doses of 200 μl, and blood was collected 3 hours later. The concentration of the FD4 was determined using a fluorimeter with an excitation wavelength of 490 nm and an emission wavelength of 530 nm. To assess concentration, FD4 in serum was then serially diluted to establish a standard curve.
Leaky gut recovery studies. Zonulin antagonist, larazotide acetate (known as AT-1001, or INN-202), was purchased from BOC Sciences, NY. Individual neonatally-colonized littermates from SPF mice, colonized with different RG strains, were retested after FD4 challenge, and those with abnormal levels then each received 0.15 mg/ml of the zonulin antagonist in drinking water, which was refreshed every day, for 10 consecutive days. After 24 hours rest, intestinal permeability was then retested.

[2] = tested on: bacterial extract of Lupus strain S107-86; test: Direct binding ELISA, S107-86 bacterial extract; parameters: species or system Ruminococcus gnavus; details: extract coated on ELISA plate
Description: (§1) In this assay, LG or nuclease-treated RG strain extracts were precoated overnight onto the well, then after blocking with bovine serum albumin, the mAbs, or isotype control at 1 μg/ml were incubated for 4 hours, then washed and developed (see below-described methods) (FIG. 15A). Immunoblot with mAb 33.2.3 (FIG. 15B) and immunoblot with 34.2.2 mAb (FIG. 15C), detect antigenically related LG oligobands in extracts of R. gnavus strains isolated from active Lupus nephritis strains. In each panel is shown samples of purified lipoglycan from the Lupus S47-18 strain, and the RG2 strain of R. gnavus. At left, extracts of whole bacteria are shown for the RG1 strain (from a healthy donor), and the Lupus-derived strains; S107-48, S107-86, S47-18, and for the RG2 strain.
(§2) Assays of antigen-reactive IgG antibodies. A custom multiplex bead-based array for the Magpix platform (Luminex, Austin TX) was created by coupling a variety of highly purified thymic native DNAs, purified cell wall lipoglycan (LG) from the RG2 strain (i.e., IgG anti-RG2 LG (formerly termed LG3) (Azzouz et al., 2019)), and the Lupus RG strain S47-18 (i.e., IgG anti-S47-18 strain LG), recombinant S. aureus proteins, endotoxins, and other bacterial antigens and control ligands, to individual microspheres, adapting the manufacturer's protocol and previous reports (Pelzek et al., 2017; Pelzek et al., 2018b; Radke et al., 2018). For antigen-reactive IgG detection, 1,000 microspheres per analyte per well were premixed, sonicated, and then diluted with addition of 100 μl of serum, as indicated. For ELISA bound IgG antibodies were detected with Fc-gamma-specific anti-murine IgG HRP (eBioscience, San Diego CA), and for multiplex bead-based assay with anti-mouse IgG (Fc-specific) F(ab′)2 PE (Jackson ImmunoResearch, West Grove PA). Data were acquired on a Magpix instrument (Luminex) and reported as mean fluorescence intensity (MFI) values, as previously described (Pelzek et al., 2017; Pelzek et al., 2018a; Radke et al., 2018). Plasma zonulin were quantitated with a commercial ELISA Kit. (MyBioSource, San Diego CA.).
(§3) Direct binding ELISA. To detect the reactivity of the murine monoclonal antibodies (mAb) […] and mAb 34.2.2 with the different RG strains, the ELISA plates were coated with the bacterial extracts from RG2, S47-18, S107-48, S107-86, RG1 as well as with the purified lipoglycan from the strains RG2 and S47-18. Next, the murine monoclonal antibodies were added at two concentrations (at 100 ng/ml and 25 ng/ml) in duplicate, incubated for 2 h at RT. Binding was detected with goat anti mouse IgG HRP conjugated at 1:10,000 (Jackson ImmunoResearch), then TMB substrate was added to develop the plate.

[3] = tested on: purified LG from the S47-18 strain; test: Immunoblot, purified lipoglycan from S47-18 strain; type: binding, Ruminococcus gnavus
Description: as §1
(§4) Immunoblotting. Electrophoretic separation used Bis-Tris mini gels (Novex, Thermo Fisher) with bacterial extracts loaded at the same concentration, then transferred to membranes, which were incubated with sera diluted at 1:100, and incubated overnight at 4° C. For detection, anti-human IgG biotin conjugated (Jackson ImmunoResearch Labs, USA) was added and developed by IRDye® 800CW Streptavidin (LI-COR®).

[4] = tested on: purified LG from the S47-18 strain; test: Direct binding ELISA, purified lipoglycan from S47-18 strain; parameters: species or system Ruminococcus gnavus; details: antigen coated on ELISA plate
Description: as §1, with “At left, extracts of whole bacteria are shown for the RG1 strain (from a healthy donor), and the Lupus-derived strains; S107-48, S107-86, S47-18, and for the RG2 strain.” left out
(§5) Assays of antigen-reactive IgG antibodies. […] For ELISA bound IgG antibodies were detected with Fc-gamma-specific anti-murine IgG HRP (eBioscience, San Diego CA), and for multiplex bead-based assay with anti-mouse IgG (Fc-specific) F(ab′)2 PE (Jackson ImmunoResearch, West Grove PA). Data were acquired on a Magpix instrument (Luminex) and reported as mean fluorescence intensity (MFI) values, as previously described (Pelzek et al., 2017; Pelzek et al., 2018a; Radke et al., 2018). Plasma zonulin were quantitated with a commercial ELISA Kit. […]
(§6) Direct binding ELISA. […] Binding was detected with goat anti mouse IgG HRP conjugated at 1:10,000 (Jackson ImmunoResearch), then TMB substrate was added to develop the plate.

[5] = tested on: bacterial extract of the RG2 strain (CC55_001C); test: Direct binding ELISA, RG2 bacterial extract; parameters: species or system Ruminococcus gnavus; details: extract coated on ELISA plate
Description: as §1, §2, §3

[6] = tested on: extract of the RG2 strain; test: Immunoblot, RG2 extract; type: binding, Ruminococcus gnavus
Description: (§7) LPS from a Pseudomonas species.
as §1
(§8) To generate RG-specific monoclonal antibodies, 10 BALB/c mice were immunized with extract of the (CC55_001C), termed RG2 strain, emulsified in complete Freund's adjuvant and then boosted with lipoglycan (LG) purified from the Lupus S47-18 strain emulsified in incomplete Freund's adjuvant. The spleen from the mouse with the strongest post-immunization was fused with the NS-1 myeloma cells.
(§9) Immunoblotting. […]

[7] = tested on: extract of Lupus RG strain S107-86; test: Immunoblot, S107-86 extract; type: binding, Ruminococcus gnavus
Description: as §1, §4

[8] = tested on: purified LG from the RG2 strain; test: Direct binding ELISA, purified lipoglycan from RG2 strain; parameters: species or system Ruminococcus gnavus; details: antigen coated on ELISA plate
Description: as §1, §2, §3

[9] = tested on: purified LG from RG2 (RG2-LG); test: Immunoblot, purified lipoglycan from RG2 strain; type: binding, Ruminococcus gnavus
Description: as §7, §1, §4

[10] = tested on: extract of Lupus RG strain S47-18; test: Immunoblot, S47-18 extract; type: binding, Ruminococcus gnavus
Description: as §7, §1, §8, §9

[11] = tested on: bacterial extract of Lupus strain S47-18; test: Direct binding ELISA, S47-18 bacterial extract; parameters: species or system Ruminococcus gnavus; details: extract coated on ELISA plate
Description: as §1, §2, §3

[12] = tested on: extract of Lupus RG strain S107-48; test: Immunoblot, S107-48 extract; type: binding, Ruminococcus gnavus
Description: as §7, §1, §8, §9

[13] = tested on: extract of RG1 strain; test: Immunoblot, RG1 extract; type: binding, Ruminococcus gnavus; details: strain from a healthy donor, lacks the lipoglycan
Description: as §7, §1, §8, §9

[14] = tested on: bacterial extract of Lupus strain S107-48; test: Direct binding ELISA, S107-48 bacterial extract; parameters: species or system Ruminococcus gnavus; details: extract coated on ELISA plate
Description: as §1, with “At left, extracts of whole bacteria are shown for the RG1 strain (from a healthy donor), and the Lupus-derived strains; S107-48, S107-86, S47-18, and for the RG2 strain.” left out
as §5, §6

[15] = tested on: extract of the RG1 type strain (ATCC29149); test: Direct binding ELISA, RG1 bacterial extract; parameters: species or system Ruminococcus gnavus; details: extract coated on ELISA plate; strain lacks the lipoglycan
Description: as §1, with “At left, extracts of whole bacteria are shown for the RG1 strain (from a healthy donor), and the Lupus-derived strains; S107-48, S107-86, S47-18, and for the RG2 strain.” left out
as §5, §6

Molecule	ELISA reactivity with extract of Lupus strain S107-86 [2]	Immunoblot reactivity with purified LG from S47-18 strain [3]	ELISA reactivity with purified LG from S47-18 strain [4]	ELISA reactivity with extract of RG2 strain [5]	Immunoblot reactivity with LG oligobands in RG2 extract [6]	Immunoblot reactivity with LG oligobands in S107-86 extract [7]	ELISA reactivity with purified LG from RG2 strain [8]	Immunoblot reactivity with purified LG from RG2 strain [9]	Immunoblot reactivity with LG oligobands in S47-18 extract [10]	ELISA reactivity with extract of Lupus strain S47-18 [11]	Immunoblot reactivity with LG oligobands in S107-48 extract [12]	Immunoblot reactivity with RG1 extract [13]	ELISA reactivity with extract of Lupus strain S107-48 [14]	ELISA reactivity with RG1 type strain extract [15]	further results
larazotide acetate	–	–	–	–	–	–	–	–	–	–	–	–	–	–	Gut barrier function (plasma FD4 after challenge), before vs after treatment ([1]; Lupus S47-18 strain colonized mice, p=0.01): normalized; Gut barrier function (plasma FD4 after challenge), before vs after treatment ([1]; Lupus S107-48 strain colonized mice, p=0.01): normalized; Gut barrier function (plasma FD4 after challenge), before vs after treatment ([1]; RG2 strain colonized mice, p=0.03): normalized
B1	reactive	bound	strongly react	reactive	recognized oligoband antigen	recognized oligoband antigen	strongly react	bound	recognized oligoband antigen	reactive	recognized oligoband antigen	no reactivity	reactive	non-reactive	ELISA reactivity with extract of Lupus strain S107-86 ([2]; listed as 33.2.3): reactivity; ELISA reactivity with extract of RG2 strain ([5]; listed as 33.2.3): reactivity; ELISA reactivity with purified LG from RG2 strain ([8]; listed as 33.2.3): reactivity; ELISA reactivity with extract of Lupus strain S47-18 ([11]; listed as 33.2.3): reactivity
B2	reactive	bound	strongly react	reactive	recognized oligoband antigen	recognized oligoband antigen	strongly react	bound	recognized oligoband antigen	reactive	recognized oligoband antigen	no reactivity	reactive	non-reactive	ELISA reactivity with extract of Lupus strain S107-86 ([2]; listed as 34.2.2): reactivity; ELISA reactivity with extract of RG2 strain ([5]; listed as 34.2.2): reactivity; ELISA reactivity with purified LG from RG2 strain ([8]; listed as 34.2.2): reactivity; ELISA reactivity with extract of Lupus strain S47-18 ([11]; listed as 34.2.2): reactivity

Source: patent publication US20260116956A1, “ANTIBODY BASED TREATMENT TO REDUCE GUT BACTERIAL GLYCAN AND ASSOCIATED BACTERIA” (priority 2022, published 2026)
